Patent publication US20210395323A1 (UNIVERSIT T STUTTGART, published 2021)

Columns and labels:
TNFR2 on BV-2 cells = target: T1, TNFR2 on BV-2 cells (UniProt P25119 23-474, limits assumed); assay: cell-based or functional assay
T1 sequence (looked up): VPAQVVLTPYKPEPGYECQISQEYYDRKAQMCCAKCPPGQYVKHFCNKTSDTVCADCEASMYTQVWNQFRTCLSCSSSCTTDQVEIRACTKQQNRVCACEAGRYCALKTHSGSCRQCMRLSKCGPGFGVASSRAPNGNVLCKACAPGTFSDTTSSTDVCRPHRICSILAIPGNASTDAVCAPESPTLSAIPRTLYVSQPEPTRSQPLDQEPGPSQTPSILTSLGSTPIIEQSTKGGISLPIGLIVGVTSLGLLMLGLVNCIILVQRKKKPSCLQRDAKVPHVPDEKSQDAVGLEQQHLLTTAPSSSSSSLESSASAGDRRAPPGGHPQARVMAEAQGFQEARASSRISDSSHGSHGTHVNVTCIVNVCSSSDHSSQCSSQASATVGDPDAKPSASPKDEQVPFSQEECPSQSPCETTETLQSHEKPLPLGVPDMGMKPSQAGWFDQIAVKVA

[1] = target: T2, TNFR2 on primary mouse cells (thymocytes and CD3+ T cells of C57BL/6 mice) (mouse, UniProt P25119 23-474); assay: cell-based or functional assay
T2 sequence (looked up): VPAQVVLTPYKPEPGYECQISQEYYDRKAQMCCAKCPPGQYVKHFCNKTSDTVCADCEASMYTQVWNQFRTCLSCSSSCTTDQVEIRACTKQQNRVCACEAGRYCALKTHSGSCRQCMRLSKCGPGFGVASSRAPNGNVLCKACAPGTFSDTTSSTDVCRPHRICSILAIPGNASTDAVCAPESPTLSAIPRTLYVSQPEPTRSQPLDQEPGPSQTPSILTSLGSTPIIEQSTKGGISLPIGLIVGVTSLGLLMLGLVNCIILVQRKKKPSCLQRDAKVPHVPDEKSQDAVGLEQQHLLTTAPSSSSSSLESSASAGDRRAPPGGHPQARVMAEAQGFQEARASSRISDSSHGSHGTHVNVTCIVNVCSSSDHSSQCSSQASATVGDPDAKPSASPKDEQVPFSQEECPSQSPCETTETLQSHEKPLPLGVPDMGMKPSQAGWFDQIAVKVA

[2] = target: T3, human TNFR2-Fc fusion protein (human, UniProt P20333 23-257); assay: quartz crystal microbalance (Attana Cell 200), human TNFR2-Fc immobilised at low density (130 Hz), 37° C
T3 construct: also called huTNFR2-Fc; huTNFR2
T3 sequence (looked up): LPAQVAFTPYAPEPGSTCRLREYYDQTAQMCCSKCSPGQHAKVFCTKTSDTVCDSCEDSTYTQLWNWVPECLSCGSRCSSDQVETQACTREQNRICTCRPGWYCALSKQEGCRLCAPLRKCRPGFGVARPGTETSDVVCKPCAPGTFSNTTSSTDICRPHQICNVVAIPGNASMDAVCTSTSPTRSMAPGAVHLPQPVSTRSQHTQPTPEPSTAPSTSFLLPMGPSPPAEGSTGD
Experimental: (§1) Affinities of scTNFR2 and the complexes for human TNFR2-Fc were further determined by quartz crystal microbalance measurements using an Attana Cell 200 (Attana, Stockholm, Sweden). Human TNFR2-Fc was chemically immobilized on a carboxyl sensor chip according to the manufacturer's protocol at a high and low density, respectively. Binding experiments were performed in PBST buffer (PBS, 0.1% Tween 20, pH 7.4) with a flow rate of […] at 37° C. The chip was regenerated with 10 mM Glycine-HCl, pH 2.0. Before each measurement, a baseline was measured which was subtracted from the binding curve. Data were collected using the software provided by Attana for the particular device and analyzed by Attaché Office Evaluation software (Attana, Stockholm, Sweden) and TraceDrawer (Ridgview Instruments, Vange, Sweden) (FIG. 6). In Table 4, binding values for the binding of the hexavalent and dodecavalent mouse complexes to TNFR2 are summarized, which have been calculated based on quartz crystal microbalance measurements on a low density chip. In Table 5, binding values for the binding of the sc-mTNFR2 and the hexavalent and dodecavalent mouse proteins to TNFR2 are summarized, which have been calculated based on quartz crystal microbalance measurements on a high density chip.

[3] = target: T4, mouse TNFR2-Fc fusion protein (mouse, UniProt P25119 23-258, limits assumed); assay: ELISA, mTNFR2-Fc coated at 1 µg/ml, bound protein detected with anti-TNF F6C5
T4 construct: also called mTNFR2-Fc; mTNFR2
T4 sequence (looked up): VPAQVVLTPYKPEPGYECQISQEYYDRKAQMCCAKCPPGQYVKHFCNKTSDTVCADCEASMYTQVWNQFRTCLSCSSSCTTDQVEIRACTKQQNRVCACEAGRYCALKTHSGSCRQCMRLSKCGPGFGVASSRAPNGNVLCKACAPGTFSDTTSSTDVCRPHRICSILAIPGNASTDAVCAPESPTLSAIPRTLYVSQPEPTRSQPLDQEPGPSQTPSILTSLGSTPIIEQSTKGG
Experimental: (§2) ELISA plates (Greiner, Frickenhausen, Germany) were coated with huTNFR1-Fc, mTNFR1-Fc, huTNFR2-Fc or mTNFR2-Fc fusion proteins at 1 μg/ml in PBS and incubated at 4° C. overnight. Residual binding sites were blocked with 2% skim milk powder in PBS at RT for 2 hours. ScTNFR2 and the complexes were diluted in 2% skim milk powder in PBS and added at concentrations in the range of 10⁻³ to 10 nM and incubated for 1 hour at RT. Between each step, non-bound proteins were removed by washing 4 times with 0.005% Tween-20 in PBS.
(§3) Bound proteins were detected with mouse monoclonal antibodies to TNF (clone F6C5; 1 μg/ml; incubation for 1 hour at RT) and HRP-conjugated anti-mouse IgG antibodies (diluted 1:10000; incubation for 1 hour at RT), followed by incubation with tetramethylbenzidine (TMB) substrate solution. Reaction was stopped by addition of 1 M H₂SO₄ and the absorbance at 450 nm was determined with a Multiskan FC absorbance reader (Thermo Scientific, Karlsruhe, Germany) and data were analyzed using the software Microsoft Excel and GraphPad Prism 4 (GraphPad, La Jolla, Calif.) (FIG. 5). In Table 3, the calculated EC₅₀ values for the binding of TNF, scTNFR2 and the complexes to immobilized huTNFR2 and mTNFR2 based on the ELISA assay are summarized.

[4] = target: T5, TNFR2 on human cells (Kym-1 cells; human CD3+ T cells) (human, UniProt P20333 23-461); assay: cell-based or functional assay
T5 sequence (looked up): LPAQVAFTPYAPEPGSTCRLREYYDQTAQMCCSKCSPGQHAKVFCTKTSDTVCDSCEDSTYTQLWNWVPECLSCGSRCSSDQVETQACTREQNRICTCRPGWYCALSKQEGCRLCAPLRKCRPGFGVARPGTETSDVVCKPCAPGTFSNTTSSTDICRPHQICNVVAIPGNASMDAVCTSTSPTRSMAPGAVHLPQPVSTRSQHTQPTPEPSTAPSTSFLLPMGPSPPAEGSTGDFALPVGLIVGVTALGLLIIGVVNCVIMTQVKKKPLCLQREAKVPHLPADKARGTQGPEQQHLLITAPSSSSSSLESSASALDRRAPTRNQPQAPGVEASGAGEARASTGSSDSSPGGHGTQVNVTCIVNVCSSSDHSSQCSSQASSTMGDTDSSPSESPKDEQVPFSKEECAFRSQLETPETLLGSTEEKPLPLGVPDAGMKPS

[5] = target: T3, human TNFR2-Fc fusion protein; assay: quartz crystal microbalance (Attana Cell 200), human TNFR2-Fc immobilised at high density (270 Hz), 37° C
Experimental: as §1

[6] = target: T3, human TNFR2-Fc fusion protein; assay: ELISA, huTNFR2-Fc coated at 1 µg/ml, bound protein detected with anti-TNF F6C5
Experimental: as §2, §3

B1: GCN4-sc-mTNFR2 (mouse) (ligand)
chain: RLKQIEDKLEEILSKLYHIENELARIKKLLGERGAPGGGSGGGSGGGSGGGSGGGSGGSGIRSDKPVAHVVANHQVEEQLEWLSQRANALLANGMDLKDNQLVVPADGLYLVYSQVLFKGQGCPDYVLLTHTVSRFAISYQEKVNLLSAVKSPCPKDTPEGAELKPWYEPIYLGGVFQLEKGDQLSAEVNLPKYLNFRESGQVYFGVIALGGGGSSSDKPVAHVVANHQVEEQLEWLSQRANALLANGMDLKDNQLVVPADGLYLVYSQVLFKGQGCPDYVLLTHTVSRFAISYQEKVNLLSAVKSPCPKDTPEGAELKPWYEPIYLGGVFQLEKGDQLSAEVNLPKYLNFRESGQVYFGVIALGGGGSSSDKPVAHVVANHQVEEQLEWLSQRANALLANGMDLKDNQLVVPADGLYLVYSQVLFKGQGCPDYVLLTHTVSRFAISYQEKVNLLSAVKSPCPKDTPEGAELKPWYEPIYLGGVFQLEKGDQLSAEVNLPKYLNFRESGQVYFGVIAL
notes: Dodecavalent tetramer of four subunits
EC50 values (nM) of Cxcl-2 secretion (BV-2 cells, ELISA) (TNFR2 on BV-2 cells): 0.03 nM | EC50 values (nM) of thymocyte proliferation induction (MTT assay) [1]: 0.0185 nM | Kd [2]: 16.1 nM | koff [2]: 0.0347 s⁻¹ | kon [2]: 2.16e+06 M⁻¹ s⁻¹ | EC50 [3]: 0.0452 nM | EC50 values (nM) of cell death induction using Kym-1 cells [4]: 0.0057 nM | Kd [5]: 0.0527 nM | koff [5]: 8.77e-05 s⁻¹ | kon [5]: 1.67e+06 M⁻¹ s⁻¹

B2: p53-scTNFR2 (human) (ligand)
chain: KKPLDGEYFTLQIRGRERFEMFRELNEALELKDAQAGKEPGAPGGGSGGGSGGGSGGGSGGGSGGSEFLASSRTPSDKPVAHVVANPQAEGQLQWLNRRANALLANGVELRDNQLVVPSEGLYLIYSQVLFKGQGCPSTHVLLTHTISRIAVSYQTKVNLLSAIKSPCQRETPEGAEAKPWYEPIYLGGVFQLEKGDRLSAEINRPDYLNFRESGQVYFGIIALGGGGSSSRTPSDKPVAHVVANPQAEGQLQWLNRRANALLANGVELRDNQLVVPSEGLYLIYSQVLFKGQGCPSTHVLLTHTISRIAVSYQTKVNLLSAIKSPCQRETPEGAEAKPWYEPIYLGGVFQLEKGDRLSAEINRPDYLNFRESGQVYFGIIALGGGGSSSRTPSDKPVAHVVANPQAEGQLQWLNRRANALLANGVELRDNQLVVPSEGLYLIYSQVLFKGQGCPSTHVLLTHTISRIAVSYQTKVNLLSAIKSPCQRETPEGAEAKPWYEPIYLGGVFQLEKGDRLSAEINRPDYLNFRESGQVYFGIIAL
EC50 values (nM) of cell death induction using Kym-1 cells [4]: 0.0106 nM | EC50 [6]: 0.094 nM

B3: p53-sc-mTNFR2 (mouse) (ligand)
chain: KKPLDGEYFTLQIRGRERFEMFRELNEALELKDAQAGKEPGAPGGGSGGGSGGGSGGGSGGGSGGSGIRSDKPVAHVVANHQVEEQLEWLSQRANALLANGMDLKDNQLVVPADGLYLVYSQVLFKGQGCPDYVLLTHTVSRFAISYQEKVNLLSAVKSPCPKDTPEGAELKPWYEPIYLGGVFQLEKGDQLSAEVNLPKYLNFRESGQVYFGVIALGGGGSSSDKPVAHVVANHQVEEQLEWLSQRANALLANGMDLKDNQLVVPADGLYLVYSQVLFKGQGCPDYVLLTHTVSRFAISYQEKVNLLSAVKSPCPKDTPEGAELKPWYEPIYLGGVFQLEKGDQLSAEVNLPKYLNFRESGQVYFGVIALGGGGSSSDKPVAHVVANHQVEEQLEWLSQRANALLANGMDLKDNQLVVPADGLYLVYSQVLFKGQGCPDYVLLTHTVSRFAISYQEKVNLLSAVKSPCPKDTPEGAELKPWYEPIYLGGVFQLEKGDQLSAEVNLPKYLNFRESGQVYFGVIAL
notes: as for B1
EC50 values (nM) of Cxcl-2 secretion (BV-2 cells, ELISA) (TNFR2 on BV-2 cells): 0.13 nM | EC50 values (nM) of thymocyte proliferation induction (MTT assay) [1]: 0.065 nM | Kd [2]: 50.9 nM | koff [2]: 0.0651 s⁻¹ | kon [2]: 1.28e+06 M⁻¹ s⁻¹ | EC50 [3]: 0.0744 nM | EC50 values (nM) of cell death induction using Kym-1 cells [4]: 0.0562 nM | Kd [5]: 0.0437 nM | koff [5]: 2.69e-05 s⁻¹ | kon [5]: 616000 M⁻¹ s⁻¹

B4: mouse single-chain TNF variant (D221N/A223R, sc-mTNFR2) (ligand)
chain: SDKPVAHVVANHQVEEQLEWLSQRANALLANGMDLKDNQLVVPADGLYLVYSQVLFKGQGCPDYVLLTHTVSRFAISYQEKVNLLSAVKSPCPKDTPEGAELKPWYEPIYLGGVFQLEKGDQLSAEVNLPKYLNFRESGQVYFGVIALGGGGSSSDKPVAHVVANHQVEEQLEWLSQRANALLANGMDLKDNQLVVPADGLYLVYSQVLFKGQGCPDYVLLTHTVSRFAISYQEKVNLLSAVKSPCPKDTPEGAELKPWYEPIYLGGVFQLEKGDQLSAEVNLPKYLNFRESGQVYFGVIALGGGGSSSDKPVAHVVANHQVEEQLEWLSQRANALLANGMDLKDNQLVVPADGLYLVYSQVLFKGQGCPDYVLLTHTVSRFAISYQEKVNLLSAVKSPCPKDTPEGAELKPWYEPIYLGGVFQLEKGDQLSAEVNLPKYLNFRESGQVYFGVIAL
notes: Trivalent single chain; also called TNFR2-selective mouse TNF variant; trivalent (sc-mTNFR2)
EC50 values (nM) of Cxcl-2 secretion (BV-2 cells, ELISA) (TNFR2 on BV-2 cells): 1.07 nM | EC50 [3]: 1.55 nM | Kd [5]: 0.449 nM | koff [5]: 0.000399 s⁻¹ | kon [5]: 808000 M⁻¹ s⁻¹

B5: EHD2-sc-mTNFR2 (mouse) (ligand)
chain: DFTPPTVKILQSSCDGGGHFPPTIQLLCLVSGYTPGTINITWLEDGQVMDVDLSTASTTQEGELASTQSELTLSQKHWLSDRTYTCQVTYQGHTFEDSTKKCADSNGGGSGGGSGGGSGGGSGGGSGGSGIRSDKPVAHVVANHQVEEQLEWLSQRANALLANGMDLKDNQLVVPADGLYLVYSQVLFKGQGCPDYVLLTHTVSRFAISYQEKVNLLSAVKSPCPKDTPEGAELKPWYEPIYLGGVFQLEKGDQLSAEVNLPKYLNFRESGQVYFGVIALGGGGSSSDKPVAHVVANHQVEEQLEWLSQRANALLANGMDLKDNQLVVPADGLYLVYSQVLFKGQGCPDYVLLTHTVSRFAISYQEKVNLLSAVKSPCPKDTPEGAELKPWYEPIYLGGVFQLEKGDQLSAEVNLPKYLNFRESGQVYFGVIALGGGGSSSDKPVAHVVANHQVEEQLEWLSQRANALLANGMDLKDNQLVVPADGLYLVYSQVLFKGQGCPDYVLLTHTVSRFAISYQEKVNLLSAVKSPCPKDTPEGAELKPWYEPIYLGGVFQLEKGDQLSAEVNLPKYLNFRESGQVYFGVIAL
notes: Hexavalent dimer of two subunits; also called hexavalent (EHD2-sc-mTNFR2)
EC50 values (nM) of Cxcl-2 secretion (BV-2 cells, ELISA) (TNFR2 on BV-2 cells): 0.44 nM | EC50 values (nM) of thymocyte proliferation induction (MTT assay) [1]: 0.07 nM | Kd [2]: 118 nM | koff [2]: 0.063 s⁻¹ | kon [2]: 533000 M⁻¹ s⁻¹ | EC50 [3]: 0.112 nM | EC50 values (nM) of cell death induction using Kym-1 cells [4]: 0.453 nM | Kd [5]: 0.0615 nM | koff [5]: 3.74e-05 s⁻¹ | kon [5]: 607000 M⁻¹ s⁻¹
